Test results as given in article PMC6491591 (2019).

B1: Gonadotropin Regulated Testicular Helicase (GRTH/DDX25), wild type, V5-His tagged [human] / Protein Kinase A catalytic subunit alpha (PKA-Cα), overexpressed [not stated] (parent complex)
chain 1: MASLLWGGDAGAAESERLNSHFSNLSQPRKNLWGIKSTAVRNIDGSINNINEDDEEDVVDLAANSLLNKLIHQSLVESSHRVEVLQKDPSSPLYSVKTFEELRLKEELLKGIYAMGFNRPSKIQEMALPMMLAHPPQNLIAQSQSGTGKTAAFVLAMLSRVNALELFPQCLCLAPTYELALQTGRVVEQMGKFCVDVQVMYAIRGNRIPRGTDITKQIIIGTPGTVLDWCFKLKLIDLTKIRVFVLDEADVMIDTQGFSDHSIRIQRALPSECQMLLFSATFEDSVWHFAERIIPDPNVIKLRKEELTLNNIRQYYVLCEHRKDKYQALCNIYGSITIGQAIIFCQTRRNAKWLTVEMIQDGHQVSLLSGELTVEQRASIIQRFRDGKEKVLITTNVCARGIDVKQVTIVVNFDLPVKQGEEPDYETYLHRIGRTGRFGKKGLAFNMIEVDELPSLMKIQDHFNSSIKQLNAEDMDEIEKIDY
chain 2: not shown

Variants of: B1
Experiment: co-immunoprecipitation (IP: V5 antibody), western blot band intensity quantified with ImageJ; COS-1 cells co-transfected with GRTH-V5 and PKA-Cα; read off a plot

response | Variant
~1.2 Arbitrary units | chain 1 E165A
~1 Arbitrary units | chain 1 E165A, chain 1 K240A
~1.3 Arbitrary units | chain 1 T239A

Variants of: B1
Experiment: co-immunoprecipitation (IP: PKA-Cα antibody), western blot band intensity quantified with ImageJ; COS-1 cells co-transfected with GRTH-V5 and PKA-Cα; read off a plot

response | Variant
~1.2 Arbitrary units | chain 1 E165A
~1.2 Arbitrary units | chain 1 E165A, chain 1 K240A
~1.2 Arbitrary units | chain 1 T239A
